Earlier results as cited in article PMC12172581.

Target: Nterm1 (UniProt position 672, SEVKMDAEFRH)
Assay: potentiometry
Conditions: apo (metal-free) peptide

Amyloid-beta peptide (Abeta1-40, as tabulated) (Homo sapiens)
pKa: 8.0
